The values below come from patent publication US20110159037A1.

One assay concerns the target Ro (SSA). In words: Luminex AtheNA Multi-Lyte ANA Test, 0.15 µg mab per test.
The next assay deals with Histones. In words: Luminex AtheNA Multi-Lyte ANA Test, 0.15 µg mab per test.
The target of assay [1] is Centromere B (Homo sapiens (Human)) (UniProt P07199). The assay is described as above.
In assay [2] the target is HIV-1 envelope gp41 (virus of the PBMC neutralization assay) (HIV-1, isolate not stated).

With Mab 4E10 (antibody), in the assay with Ro (SSA), the relative units (relative units based on a standard curve) is 221. As to “soluble HIV-1 Env gp140 oligomers (CON-S)”, the IC50 with Mab 4E10 stood at 145 nM. For IgG1b12 (antibody), the relative units (relative units based on a standard curve) with Histones worked out at 185; in assay [1], 479. In assay [2], 13H11 (antibody) registered an HIV Neutralization ID50 In PBMC assay above 50 µg/mL. The same measure, in the same setting: the same measure for 98-6 (antibody): 3.5 µg/mL. A32 (antibody) showed a relative units (relative units based on a standard curve) in assay [1] of 1130. Substance Mab 2F5 (antibody) showed an HIV Neutralization ID50 In PBMC assay in assay [2] of 1 µg/mL. The figures for the relative units (relative units based on a standard curve) (with Histones; with Ro (SSA); in assay [1]) were 1010, 290 and 1780, respectively.

In general, IC50 refers to the concentration at which inhibition is half-maximal.
